{"source": "patent US20040126882", "about": "“Regulatable, catalytically active nucleic acids” (published 2004)", "binders": {"B1": {"name": "B17 (ssRNA)", "RNA": "GGGAAUGGAUCCACAUCUACGAAUUCGUAGCGUAGAGUAUGAGAGAGCCAAGGUCAGGUUCACUCCAGACUUGACGAAGCUU"}, "B2": {"name": "M12 (ssRNA)", "RNA": "GGGAAUGGAUCCACAUCUACGAAUUCGAGUCGAGAACUGGUGCGAAUGCGAGUAAGUUCACUCCAGACUUGACGAAGCUU"}, "B3": {"name": "c1 (ssRNA)", "RNA": "GGGAAUGGAUCCACAUCUACGAAUUCAUCAGGGCUAAAGAGUGCAGAGUUACUUAGUUCACUCCAGACUUGACGAAGCUU"}, "B4": {"name": "ND1 group I intron (ssRNA)", "RNA": "GACUAAUAUGAUUUGGUCUCAUUAAAGAUCACAAAUUGCUGGAAACUCCUUUGAGGCUAGGACAAUCAGCAAGGAAGUUAACAUAUAAUGUUAAAACCUUCAGAGACUAGACGUGAUCAUUUAAUAGACGCCUUGCGGCUCUUAUUAGAUAAGGUAUAGUCCAAAUUUGUAUGUAAAUACAAAAUGAUAAAAAAAAAUGAAAUCAUAUGGG"}}, "key": {"hen egg white lysozyme [1]": {"target": "T1, hen egg white lysozyme (UniProt P00698 P00698:19-147)", "experiment": "competition", "experimental": "(§1) Ligation assays. In one example, 10 pmol of [³²P]-body-labeled ribozyme and 20 pmol effector oligonucleotide were denatured for 3 min at 70° C. in 5 μl water. The RNA mixture was cooled to room temperature followed by addition of ligation buffer and target protein (20 pmol unless otherwise stated, or water in place of ligand, in the case of […]). After a 5 min equilibration at room temperature, reactions were initiated by the addition of 20 pmol substrate oligonucleotide (S28A) in a final volume of 15 μl. Reactions were incubated at 25° C., and 4 μl aliquots were removed at three appropriate time points and terminated by the addition of 18 μl of SDS stop mix (100 mM EDTA, 80% formamide, 0.8% SDS, 0.05% bromophenol blue, 0.05% xylene cyanol). Samples were denatured for 3 min at 70° C., ligated and unligated species were separated from one another on 8% polyacrylamide gels containing 0.1% SDS, and the amounts of products formed were determined using a Phosphorimager (Molecular Dynamics, Sunnyvale, Calif.). Assays performed over a broad range of protein concentrations (e.g, FIG. 21) differed from typical reaction conditions in that only 1 pmol ribozyme was present in a 10 μl final volume.\n(§2) Competition assays. Ligation assays were performed as described above, using 10 pmol of [³²P]-body-labeled ribozyme (cyt7-2 or lys11-2; […]) and 20 pmol effector oligonucleotide (2 μM). The denatured and annealed RNA mixture was combined with ligation buffer, 20 pmol protein (Cyt18, lysozyme, or water in the case of (−) protein samples; 2 μM), and 30 pmol of denatured and annealed competitor RNA (3 μM)."}, "[2]": {"target": "T2, Cyt18 (mitochondrial tyrosyl-tRNA synthetase, CYT-18) (Neurospora crassa, UniProt P12063 P12063:33-669)", "T2 sequence": "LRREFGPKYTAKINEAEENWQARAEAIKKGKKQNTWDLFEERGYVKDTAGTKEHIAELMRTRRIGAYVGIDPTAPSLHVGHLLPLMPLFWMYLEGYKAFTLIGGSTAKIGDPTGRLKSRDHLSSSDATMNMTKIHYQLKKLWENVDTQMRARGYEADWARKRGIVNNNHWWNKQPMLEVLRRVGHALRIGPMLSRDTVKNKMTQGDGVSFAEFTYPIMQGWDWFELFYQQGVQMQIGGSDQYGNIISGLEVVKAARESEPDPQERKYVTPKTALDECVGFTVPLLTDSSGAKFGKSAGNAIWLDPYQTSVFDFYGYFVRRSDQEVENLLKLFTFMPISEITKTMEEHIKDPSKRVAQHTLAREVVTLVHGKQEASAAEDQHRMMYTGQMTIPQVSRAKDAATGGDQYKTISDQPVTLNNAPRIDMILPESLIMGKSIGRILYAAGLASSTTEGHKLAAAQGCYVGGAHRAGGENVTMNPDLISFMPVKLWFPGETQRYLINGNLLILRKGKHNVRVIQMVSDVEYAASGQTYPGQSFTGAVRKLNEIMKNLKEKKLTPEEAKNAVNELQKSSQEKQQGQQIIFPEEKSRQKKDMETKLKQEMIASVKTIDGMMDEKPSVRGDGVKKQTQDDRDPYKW", "experiment": "competition", "conditions": "chain copies: 2", "experimental": "as §1, §2"}, "hen egg white lysozyme [3]": {"target": "T1, hen egg white lysozyme", "experiment": "competition; no appreciable inhibition of lys11-2 activation", "experimental": "as §1\n(§3) Competition assays. Ligation assays were performed as described above, using 10 pmol of [³²P]-body-labeled ribozyme (cyt7-2 or lys11-2; […]) and 20 pmol effector oligonucleotide (2 μM). […]"}, "[4]": {"target": "T2, Cyt18 (mitochondrial tyrosyl-tRNA …)", "experiment": "competition; greatest reduction of Cyt18 activation of cyt7-2; 3 uM competitor", "conditions": "chain copies: 2", "experimental": "as §1, §3"}}, "data": [{"binder": "B1", "values": [{"measurement": "binding result", "setting": "hen egg white lysozyme [1]", "value": "no binding"}]}, {"binder": "B2", "values": [{"measurement": "binding result", "setting": "[2]", "value": "binds"}, {"measurement": "binding result", "setting": "hen egg white lysozyme [1]", "value": "no binding"}]}, {"binder": "B3", "values": [{"measurement": "binding result", "setting": "hen egg white lysozyme [1]", "value": "binds"}]}, {"binder": "B4", "values": [{"measurement": "binding result", "setting": "hen egg white lysozyme [3]", "value": "no binding"}, {"measurement": "binding result", "setting": "[4]", "value": "binds"}]}]}
